How the values were obtained:
[1] = target: BSA cross-linked with A-peak (A-peak-BSA) (bovine) (UniProt P02769); assay: SPR, Biacore T200; A-peak-BSA amine-coupled to a CM5 chip (72 RU), PB-1 at 0.1953 to 50 nM, 1:1 binding model
[2] = target: BSA cross-linked with A-peak (A-peak-BSA) (bovine) (UniProt P02769); assay: cross-competition ELISA: unlabeled antibody varied (0.049 to 50 µg/mL), HRP-labeled SJ-5 as competitor on immobilised A-peak-BSA, absorbance 450-650 nm
[3] = target: BSA modified with the novel structure derived from Glycer-AGEs (GAL13-BSA) (bovine) (UniProt P02769); assay: SPR, Biacore T200; GAL13-BSA amine-coupled to a CM5 chip
[4] = target: Bovine serum albumin containing AGEs derived from glyceraldehyde (Glycer-AGEs-BSA) (bovine) (UniProt P02769); assay: SPR, Biacore T200; Glycer-AGEs-BSA amine-coupled to a CM5 chip, antibody at 0 to 400 nM
[5] = target: BSA modified with the novel structure derived from Glycer-AGEs (GAL13-BSA) (bovine) (UniProt P02769); assay: direct ELISA: POD-labeled antibody on immobilised GAL13-BSA (1 µg/mL), absorbance at 490 nm

Row | Kd [1] | IC50 (read off the curve) [2] | Kd [3] | Kd [4] | EC50 (read off the curve) [5] | Binder
1 | 4.15 nM | 2 µg/mL | – | – | – | novel monoclonal antibody PB-1 (antibody, V domains shown) VH: EVRLQQSGPELVKPGTSVKISCKASGYSFTGYYMHWVKQSPVKSLEWIGRIIPYNGATSYNQNFKDKASLTVDKSSRTAYMDLHSLTSEDSAVYYCARSRYYGRAPYYFDYWGQGTTLTVSS VL: DVVVTQTPLSLPVSLGDQASISCRSSQSIVHSNGNTYLEWYLQKPGQSPKLLIYKVSNRFSGVPDRISGSGSGTDFTLKISRVEAGDLGVYSCFQGSHVPFTFGSGTKLEIK
2 | – | – | 87.5 nM | 57.4 nM | 0.3 µg/mL | novel monoclonal antibody SJ-5 (antibody, V domains shown) VH: EVMLVESGGRLVKPGGSLKLSCAASGFTFSSYGMSWVRQTPEKRLEWVATISGGGSYTYYPDSVKGRFTISRDNVKNNLYLQMSSLRSEDTALYYCARRGAYGDYGWFAYWGQGTLVTVSA VL: DIVLTQSPATLSVTPGDSVSLSCRASQSINNNLHWYQQKSHESPRLLIKCASQSISGIPSRFSGSGSGTDFTLSINSVETEDFGMYFCQQSNSWPLTFGAGTKLELK

Source: US20210221879A1
